± gives the standard deviation of the averaged measurements.
Test system: ATP
Test: switch fluorescence ratio, 500 uM ATP over buffer (Cy3 cluster intensity, sum of 5 cycles each) (fold (ratio)); higher = stronger signal-on switching upon ATP binding; sequences stand for … in TCGTCGGCAGCGTCAGATGTGTATAAGAGACAGTTTTTTTTTTTTTTTTTTTTTTTTT…TC
Conditions: aptamer strand: ATP DNA aptamer (quencher-CACCTGGGGGAGTATTGCGGAGGAAGG + anchor), 100 nM annealed; ATP concentration: 500 uM
Outline: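 For every switch-domain sequence, the fluorescence ratio is the mean of per-cluster values, each being summed target-cycle Cy3 intensity over summed buffer-cycle Cy3 intensity. Clusters outside 100-1000 RFU were excluded. On a modified Illumina MiSeq flow-cell, the Cy3-labelled switching-strand clusters were annealed to 100 nM quencher-labelled ATP aptamer, imaged in selection buffer and then after 15 min with 500 uM ATP at 22 °C. Five such cycles were run, with NaOH stripping and re-annealing between them.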
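Further: ATP exposure 15 min at 22 °C before imaging.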

Row | Sequence | switch fluorescence ratio
1 | GGGATTTCCG | 0.992 ± 0.018
2 | GGGATTTGCG | 1 ± 0.046
3 | GGGATTTGCT | 0.963 ± 0.022
4 | GGGATTTTCC | 0.979 ± 0.044
5 | GGGATTTTCG | 0.98 ± 0.023
6 | GGGATTTTGA | 0.999 ± 0.017
7 | GGGCAAAGGT | 1.09 ± 0.16
8 | GGGCAAGTGT | 1.06 ± 0.034
9 | GGGCACATGG | 1.02 ± 0.029
10 | GGGCAGATGG | 0.988 ± 0.034
11 | GGGCAGCTGG | 0.981 ± 0.042
12 | GGGCAGGCTT | 0.98 ± 0.017
13 | GGGCAGGTAG | 1.03 ± 0.031
14 | GGGCAGTGGG | 1.05 ± 0.074
15 | GGGCATCGAC | 1.05 ± 0.017
16 | GGGCATCTTT | 1 ± 0.06
17 | GGGCATGGAG | 0.992 ± 0.02
18 | GGGCATGTTG | 1.02 ± 0.03
19 | GGGCCACCAG | 1.01 ± 0.032
20 | GGGCCCGGCA | 0.9814 ± 0.0049
21 | GGGCCGTTGC | 0.948 ± 0.029
22 | GGGCCTGGAA | 1.01 ± 0.069
23 | GGGCCTGGGG | 0.998 ± 0.048

Row | Sequence | switch fluorescence ratio
24 | GGGCCTTGGG | 1.03 ± 0.049
25 | GGGCCTTTTT | 0.9864 ± 0.006
26 | GGGCGAAGTC | 0.975 ± 0.03
27 | GGGCGACGGC | 1.04 ± 0.047
28 | GGGCGACGGG | 0.996 ± 0.046
29 | GGGCGAGCTC | 0.9982 ± 0.0061
30 | GGGCGAGGGG | 1.01 ± 0.026
31 | GGGCGCGTTT | 0.9623 ± 0.0072
32 | GGGCGCTAGG | 0.971 ± 0.014
33 | GGGCGCTGGG | 1 ± 0.032
34 | GGGCGGATTT | 1.024 ± 0.008
35 | GGGCGGCGGG | 1.05 ± 0.053
36 | GGGCGGGATG | 0.984 ± 0.037
37 | GGGCGGGTGT | 0.987 ± 0.059
38 | GGGCGGTGGG | 1 ± 0.068
39 | GGGCGTATGT | 0.981 ± 0.023
40 | GGGCGTTGTG | 1.05 ± 0.11
41 | GGGCTAAAAG | 0.97428 ± 3.4e-05
42 | GGGCTAGACG | 0.997 ± 0.085
43 | GGGCTAGTCA | 0.965 ± 0.019
44 | GGGCTATCCG | 0.983 ± 0.024
45 | GGGCTATGGG | 0.997 ± 0.049
46 | GGGCTCATGG | 1.042 ± 0.0061

Row | Sequence | switch fluorescence ratio
47 | GGGCTGAAGG | 1.004 ± 0.01
48 | GGGCTGACAG | 1.035 ± 0.0012
49 | GGGCTGATAG | 1.01 ± 0.025
50 | GGGCTTAACG | 0.982 ± 0.014
51 | GGGCTTATGG | 0.975 ± 0.054
52 | GGGCTTCGTT | 0.9929 ± 0.0074
53 | GGGCTTGGGG | 0.999 ± 0.031
54 | GGGCTTTTTC | 1.02 ± 0.034
55 | GGGGAAAACT | 1.01 ± 0.022
56 | GGGGAAAGTC | 1 ± 0.032
57 | GGGGAAATGG | 1.01 ± 0.025
58 | GGGGAACGGC | 0.963 ± 0.036
59 | GGGGAACGTT | 0.947 ± 0.049
60 | GGGGAACTTC | 1.05 ± 0.045
61 | GGGGAAGCCA | 0.979 ± 0.024
62 | GGGGAAGGCA | 0.946 ± 0.084
63 | GGGGAAGGCC | 1.01 ± 0.018
64 | GGGGAAGTAC | 1.53 ± 0.31
65 | GGGGAATGGC | 1.05 ± 0.1
66 | GGGGAATTTA | 1 ± 0.024
67 | GGGGACATGC | 0.982 ± 0.078
68 | GGGGACCAGT | 0.9845 ± 0.0031
69 | GGGGACCCTG | 0.974 ± 0.029

Row | Sequence | switch fluorescence ratio
70 | GGGGACCGGC | 0.954 ± 0.041
71 | GGGGACGAAA | 0.997 ± 0.013
72 | GGGGACGAAT | 1.002 ± 0.0025
73 | GGGGACGACC | 1.03 ± 0.017
74 | GGGGACGGGC | 1.04 ± 0.075
75 | GGGGACTGGG | 1 ± 0.058
76 | GGGGACTTAG | 0.9854 ± 0.0025
77 | GGGGACTTGG | 1 ± 0.027
78 | GGGGAGACTG | 0.956 ± 0.028
79 | GGGGAGGAAA | 0.999 ± 0.029
80 | GGGGAGGCAC | 0.9854 ± 0.002
81 | GGGGAGGGGA | 1.01 ± 0.04
82 | GGGGAGGGTG | 1.05 ± 0.074
83 | GGGGAGGTTG | 0.991 ± 0.037
84 | GGGGAGGTTT | 0.966 ± 0.02
85 | GGGGAGTCGA | 1.03 ± 0.068
86 | GGGGAGTGAA | 0.992 ± 0.031
87 | GGGGAGTTAC | 1.35 ± 0.44
88 | GGGGATAAGA | 0.985 ± 0.036
89 | GGGGATAAGC | 0.992 ± 0.048
90 | GGGGATACGC | 1.03 ± 0.012
91 | GGGGATACTG | 1.31 ± 0.33
92 | GGGGATCGTT | 1.02 ± 0.021

Row | Sequence | switch fluorescence ratio
93 | GGGGATGAGC | 1.04 ± 0.037
94 | GGGGATGCAG | 0.985 ± 0.049
95 | GGGGATGTGC | 1.01 ± 0.04
96 | GGGGATTAAT | 0.99 ± 0.042
97 | GGGGATTACG | 0.984 ± 0.026
98 | GGGGATTAGG | 0.988 ± 0.015
99 | GGGGATTATG | 0.997 ± 0.046
100 | GGGGATTCAA | 0.988 ± 0.018
101 | GGGGATTGCT | 0.986 ± 0.025
102 | GGGGATTTTG | 0.9746 ± 0.0022
103 | GGGGATTTTT | 1 ± 0.035
104 | GGGGCAAATT | 1.05 ± 0.12
105 | GGGGCAACGG | 1.05 ± 0.12
106 | GGGGCACTGG | 1.03 ± 0.028
107 | GGGGCAGAGG | 0.997 ± 0.043
108 | GGGGCAGGTG | 1.27 ± 0.39
109 | GGGGCATAAG | 1.01 ± 0.013
110 | GGGGCATGAG | 1.04 ± 0.021
111 | GGGGCATTTA | 0.9643 ± 0.0047
112 | GGGGCCAGCT | 0.974 ± 0.043
113 | GGGGCCATTT | 0.99 ± 0.033
114 | GGGGCCCAGG | 1 ± 0.067
115 | GGGGCCGAAT | 1.01 ± 0.021

Row | Sequence | switch fluorescence ratio
116 | GGGGCGATTG | 1.02 ± 0.013
117 | GGGGCGCGGA | 1.09 ± 0.12
118 | GGGGCGGAGG | 0.987 ± 0.047
119 | GGGGCGGGGG | 1.02 ± 0.043
120 | GGGGCGTGCA | 1.03 ± 0.034
121 | GGGGCGTTTT | 0.998 ± 0.023
122 | GGGGCTAAGA | 0.993 ± 0.015
123 | GGGGCTATGT | 1.08 ± 0.14
124 | GGGGCTCATT | 0.983 ± 0.021
125 | GGGGCTGGAG | 1.03 ± 0.063
126 | GGGGCTGTGC | 0.976 ± 0.034
127 | GGGGCTTACG | 0.9893 ± 0.0087
128 | GGGGCTTGCG | 0.948 ± 0.045
129 | GGGGCTTTAA | 1.18 ± 0.35
130 | GGGGCTTTGG | 0.98 ± 0.025
131 | GGGGCTTTTA | 0.97 ± 0.01
132 | GGGGGAAACG | 0.989 ± 0.031
133 | GGGGGAAAGA | 0.989 ± 0.047
134 | GGGGGAAAGC | 0.984 ± 0.049
135 | GGGGGAAAGG | 1 ± 0.025
136 | GGGGGAACAC | 1.05 ± 0.044
137 | GGGGGAAGAT | 1.01 ± 0.074
138 | GGGGGAGGCC | 1.02 ± 0.056

Row | Sequence | switch fluorescence ratio
139 | GGGGGAGGGG | 1 ± 0.043
140 | GGGGGAGGTA | 0.977 ± 0.031
141 | GGGGGAGGTC | 0.989 ± 0.021
142 | GGGGGAGTTA | 0.989 ± 0.026
143 | GGGGGATAGT | 0.998 ± 0.032
144 | GGGGGATCGA | 1.04 ± 0.086
145 | GGGGGATCTT | 1 ± 0.03
146 | GGGGGATGG | 0.994 ± 0.016
147 | GGGGGATGTA | 0.948 ± 0.032
148 | GGGGGATGTC | 1 ± 0.034
149 | GGGGGATTTC | 1.12 ± 0.26
150 | GGGGGATTTG | 0.998 ± 0.013
151 | GGGGGCACTC | 0.986 ± 0.031
152 | GGGGGCCACT | 0.975 ± 0.041
153 | GGGGGCCGGG | 1.01 ± 0.052
154 | GGGGGCCTGT | 1.01 ± 0.035
155 | GGGGGCGCGG | 0.996 ± 0.015
156 | GGGGGCGGAA | 1 ± 0.027
157 | GGGGGCGGGT | 1 ± 0.044

Source: the supplement of paper PMC10126150
